Test results reported in patent publication US10513547B2, “Peptides and combination of peptides and scaffolds thereof for use in immunotherapy against colorectal carcinoma (CRC) and other cancers” (Immatics Biotechnologies GmbH, priority 2015, dated 2019).

Target: HLA-A*02:01 (Homo sapiens, UniProt P04439, D140Y/D185E/D98H/E176V/E277Q/G131W/G231S/I119V/I121R/I166T/I218V/L300P/L318F/N151K/N90K/P208A/P217A/Q86G/Q94H/R138H/R169H/T345S)
Test: MHC binding assay (UV-ligand exchange, beta2m ELISA, peptide exchange yield)
Details: binding to HLA-A*02:01
Description: Candidate peptides for T cell based therapies according to the present invention were further tested for their MHC binding capacity (affinity). The individual peptide-MHC complexes were produced by UV-ligand exchange, where a UV-sensitive peptide is cleaved upon UV-irradiation, and exchanged with the peptide of interest as analyzed. Only peptide candidates that can effectively bind and stabilize the peptide-receptive MHC molecules prevent dissociation of the MHC complexes. To determine the yield of the exchange reaction, an ELISA was performed based on the detection of the light chain ([…]) of stabilized MHC complexes. The assay was performed as generally described in Rodenko et al. (Rodenko et al., 2006).
96 well MAXISorp plates (NUNC) were coated over night with 2 ug/ml streptavidin in PBS at room temperature, washed 4× and blocked for 1 h at 37° C. in 2% BSA containing blocking buffer. Refolded HLA-A*02:01/MLA-001 monomers served as standards, covering the range of 15-500 ng/ml. Peptide-MHC monomers of the UV-exchange reaction were diluted 100 fold in blocking buffer. Samples were incubated for 1 h at 37° C., washed four times, incubated with 2 ug/ml HRP conjugated anti-β2m for 1 h at 37° C., washed again and detected with TMB solution that is stopped with […]. Absorption was measured at 450 nm. Candidate peptides that show a high exchange yield (preferably higher than 50%, most preferred higher than 75%) are generally preferred for a generation and production of antibodies or fragments thereof, and/or T cell receptors or fragments thereof, as they show sufficient avidity to the MHC molecules and prevent dissociation of the MHC complexes.

Substance	Peptide exchange (MHC class I binding score, peptide exchange yield)
86 (KVFPGKISV; listed as Homo sapiens) [compound 86]	“++” (≥20% = ++)
87 (LLFDAPDLRL; listed as Homo sapiens) [compound 87]	“+++” (≥50 = +++)
88 (KLDIKVETV; listed as Homo sapiens) [compound 88]	“++++” (≥75% = ++++)
89 (SLIEYEFRV; listed as Homo sapiens) [compound 89]	“+++” (≥50 = +++)
91 (TVDVATPSV; listed as Homo sapiens) [compound 91]	“+++” (≥50 = +++)
92 (WIDDTSAFV; listed as Homo sapiens) [compound 92]	“+++” (≥50 = +++)
93 (SLQELRLLL; listed as Homo sapiens) [compound 93]	“++++” (≥75% = ++++)
95 (AILDAHIEV; listed as Homo sapiens) [compound 95]	“++++” (≥75% = ++++)
97 (ALWWGVVTV; listed as Homo sapiens) [compound 97]	“++” (≥20% = ++)
99 (KLLEVDLDTV; listed as Homo sapiens) [compound 99]	“+++” (≥50 = +++)
101 (GLSEGHTFQV; listed as Homo sapiens) [compound 101]	“+++” (≥50 = +++)
103 (FLFGYPKRL; listed as Homo sapiens) [compound 103]	“++” (≥20% = ++)
104 (ILLTIKDDTIYL; listed as Homo sapiens) [compound 104]	“+++” (≥50 = +++)
105 (YALDLSTFL; listed as Homo sapiens) [compound 105]	“+++” (≥50 = +++)
106 (SLISEKILL; listed as Homo sapiens) [compound 106]	“+++” (≥50 = +++)
107 (ALLGGGPYML; listed as Homo sapiens) [compound 107]	“+++” (≥50 = +++)

Substance	Peptide exchange (MHC class I binding score, peptide exchange yield)
108 (SLAELVPGVGGI; listed as Homo sapiens) [compound 108]	“+++” (≥50 = +++)
109 (ALDGDQMEL; listed as Homo sapiens) [compound 109]	“++” (≥20% = ++)
110 (LLGELPRLLLL; listed as Homo sapiens) [compound 110]	“+++” (≥50 = +++)
113 (ILYDLQQNL; listed as Homo sapiens) [compound 113]	“++” (≥20% = ++)
114 (TAVGHALVL; listed as Homo sapiens) [compound 114]	“+” (≥10% = +)
116 (LVYQFVHPI; listed as Homo sapiens) [compound 116]	“++” (≥20% = ++)
117 (TLQPVDNSTISL; listed as Homo sapiens) [compound 117]	“++” (≥20% = ++)
118 (LLADLKTMV; listed as Homo sapiens) [compound 118]	“+++” (≥50 = +++)
119 (ILYQTVTGL; listed as Homo sapiens) [compound 119]	“++” (≥20% = ++)
120 (VLYEGVDEV; listed as Homo sapiens) [compound 120]	“++” (≥20% = ++)
122 (SLMGMVLKL; listed as Homo sapiens) [compound 122]	“+++” (≥50 = +++)
126 (TLAKYLMEL; listed as Homo sapiens) [compound 126]	“+++” (≥50 = +++)
129 (VLIDVLKEL; listed as Homo sapiens) [compound 129]	“+++” (≥50 = +++)
131 (KLLDVVHPA; listed as Homo sapiens) [compound 131]	“++” (≥20% = ++)
134 (GVAGGSILKGV; listed as Homo sapiens) [compound 134]	“++++” (≥75% = ++++)

The remaining lines, values ahead:

Peptide exchange (MHC class I binding score, peptide exchange yield)	Substance
“++” (≥20% = ++)	85 (ILHDINSDGVL; listed as Homo sapiens) [compound 85]
“+++” (≥50 = +++)	90 (GLLKPGLNVVL; listed as Homo sapiens) [compound 90]
“+++” (≥50 = +++)	94 (KSMDIVLTV; listed as Homo sapiens) [compound 94]
“++” (≥20% = ++)	96 (KLYSRLVYV; listed as Homo sapiens) [compound 96]
“++” (≥20% = ++)	98 (AMNGKSFSV; listed as Homo sapiens) [compound 98]
“+++” (≥50 = +++)	100 (SLDDFLATA; listed as Homo sapiens) [compound 100]
“+++” (≥50 = +++)	102 (KILVSLIEV; listed as Homo sapiens) [compound 102]
“++” (≥20% = ++)	112 (KLGQVLIYL; listed as Homo sapiens) [compound 112]
“+++” (≥50 = +++)	115 (SLFDVSHML; listed as Homo sapiens) [compound 115]
“+++” (≥50 = +++)	121 (SLAPNIISQL; listed as Homo sapiens) [compound 121]
“++++” (≥75% = ++++)	125 (KLGDFGLLVEL; listed as Homo sapiens) [compound 125]
“++” (≥20% = ++)	128 (MLDDRAYLV; listed as Homo sapiens) [compound 128]
“++” (≥20% = ++)	130 (GLGGSQLIDTHL; listed as Homo sapiens) [compound 130]
“++” (≥20% = ++)	135 (KLQEEIPVL; listed as Homo sapiens) [compound 135]
“+++” (≥50 = +++)	137 (QLTEIKPLL; listed as Homo sapiens) [compound 137]
